{"source": "paper PMC5080433", "about": "(Nature Communications, 2016)", "key": {"[1]": {"target": "p97-A232E (human, UniProt P55072 2-806, A232E)", "assay": "SEC", "conditions": "both partners purified"}, "[2]": {"target": "T1, full-length p97 (residues 2–806), purified recombinant (human, UniProt P55072 2-806)", "T1 construct": "p97 (VCP), human, residues 2-806; Hexamer when alone; in complex with ASPL-C it stands in heterotetramers; also called p97 hexamers; wt p97; source: E. coli BL21 DE3 Rosetta2, purified (Ni-NTA, TEV protease, SEC)", "assay": "BLI", "conditions": "both partners purified"}}}
{"binder": "ASPL-C (residues 313–553), purified recombinant (domain or fragment) VDREPVDREPVVCHPDLEERLQAWPAELPDEFFELTVDDVRRRLAQLKSERKRLEEAPLVTKAFREAQIKEKLERYPKVALRVLFPDRYVLQGFFRPSETVGDLRDFVRSHLGNPELSFYLFITPPKTVLDDHTQTLFQANLFPAALVHLGAEEPAGVYLEPGLLEHAISPSAADVLVARYMSRAAGSPSPLPAPDPAPKSEPAAEEGALVPPEPIPGTAQPVKRSLGKVPKWLKLPASKR", "values": [{"measurement": "binding result", "setting": "[1]", "value": "binds"}]}
{"binder": "C-terminally His-tagged full-length ASPL (residues 1–553) (natural protein, human, UniProt Q9BZE9 1-553, looked up, ASPL, human, residues 1-553; cDNA from the Mammalian Gene Collection; also called ASPL-His; source: E. coli BL21 DE3 Rosetta2, purified (glutathione-Sepharose, TEV cleavage, SEC); not shown: His, C-terminal, kept; GST, N-terminal, cleaved) MAAPAGGGGSAVSVLAPNGRRHTVKVTPSTVLLQVLEDTCRRQDFNPCEYDLKFQRSVLDLSLQWRFANLPNNAKLEMVPASRSREGPENMVRIALQLDDGSRLQDSFCSGQTLWELLSHFPQIRECLQHPGGATPVCVYTRDEVTGEAALRGTTLQSLGLTGGSATIRFVMKCYDPVGKTPGSLGSSASAGQAAASAPLPLESGELSRGDLSRPEDADTSGPCCEHTQEKQSTRAPAAAPFVPFSGGGQRLGGPPGPTRPLTSSSAKLPKSLSSPGGPSKPKKSKSGQDPQQEQEQERERDPQQEQERERPVDREPVDREPVVCHPDLEERLQAWPAELPDEFFELTVDDVRRRLAQLKSERKRLEEAPLVTKAFREAQIKEKLERYPKVALRVLFPDRYVLQGFFRPSETVGDLRDFVRSHLGNPELSFYLFITPPKTVLDDHTQTLFQANLFPAALVHLGAEEPAGVYLEPGLLEHAISPSAADVLVARYMSRAAGSPSPLPAPDPAPKSEPAAEEGALVPPEPIPGTAQPVKRSLGKVPKWLKLPASKR", "values": [{"measurement": "Kd", "setting": "[2]", "value": "~2", "unit": "nM"}]}
